The target of this test is T1, PD-L1蛋白 (human, UniProt Q9NZQ7 19-238, limits assumed).
T1 construct: also called 人PD-L1蛋白; CD274
Put plainly: competition ELISA: PD-L1 coated, biotinylated PD-1 at 1 ug/mL as competitor, HRP-streptavidin read-out.

T1 sequence (Q9NZQ7 19-238 limits assumed): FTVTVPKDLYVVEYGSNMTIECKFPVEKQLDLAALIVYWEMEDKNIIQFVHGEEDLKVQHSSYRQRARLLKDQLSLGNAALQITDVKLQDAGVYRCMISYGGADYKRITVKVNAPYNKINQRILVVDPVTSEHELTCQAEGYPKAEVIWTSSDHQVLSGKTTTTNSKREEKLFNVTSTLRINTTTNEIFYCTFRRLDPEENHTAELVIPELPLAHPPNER

B1: 13H6D3 (antibody, V domains shown)
VH: QVQLQQPGADLVKPGASVKLSCKASGYTFTSNWMHWMKQRPGQGLDWIGMIHPNSAIKYNEKFKSRASLTADKSSSTAYMQLSSLTSEDSAVYYCARSYYGSSPYFFDYWGQGTTLTVSS
VL: DIQMTQTTSSLSASLGDRVTISCRASQDISKYLNWYQQKPDGTVKFLIYYTSRLHSGVPARFSGSGSGTDYFLTISNLEQEDVATYFCQQGDTLPWTFGGGTKLEIK
notes: Only variable domains are tied to the name; also called 克隆 13H6D3
What is called IC50 is the point on the concentration scale where inhibition reaches its midpoint. In the case of B1, the IC50 turned out to be 1.23 nM.

The values are drawn from patent CN115521378A (NANJING JISHENG AOMA BIOLOGICAL PHARMACEUTICAL CO LTD, dated 2022).
